Data set [1] deals with misfolded H5 of H5N1 strain A/Vietnam/1203/04, cH5-2.
Data set [2] concerns the target T1, crossbeta dOVA-2, ovalbumin at 1.0 mg/mL in PBS heated five cycles from 30 to 85 C, P01012.
T1 chain: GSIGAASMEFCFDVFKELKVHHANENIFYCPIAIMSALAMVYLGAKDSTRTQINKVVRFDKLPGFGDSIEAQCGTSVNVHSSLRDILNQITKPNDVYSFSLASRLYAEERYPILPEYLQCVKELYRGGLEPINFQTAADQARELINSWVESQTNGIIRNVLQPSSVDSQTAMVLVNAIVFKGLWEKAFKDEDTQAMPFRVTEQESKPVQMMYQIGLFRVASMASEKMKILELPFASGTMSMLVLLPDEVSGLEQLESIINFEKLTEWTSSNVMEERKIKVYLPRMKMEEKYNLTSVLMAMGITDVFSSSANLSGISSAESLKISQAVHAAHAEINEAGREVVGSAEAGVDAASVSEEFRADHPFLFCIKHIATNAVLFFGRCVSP

In data set [3] the target is T2, crossbeta dOVA-3, ovalbumin at 1 mg/ml in PBS incubated about 16 h at 75 C, P01012.
T2 chain: T1 chain

Data set [4] deals with T3, crossbeta nOVA, ovalbumin dissolved in PBS at 1.0 mg/mL, P01012.
T3 chain: T1 chain

Data set [5] deals with misfolded H5 of H5N1 strain A/Vietnam/1203/04, cH5-1.
The target of data set [6] is crossbeta factor VIII form 12, Helixate kept at 37 C for 1 week, P00451.
Data set [7] has as its target misfolded H5 of H5N1 strain A/Vietnam/1203/04, cH5-4.
Data set [8] has as its target misfolded H5 of H5N1 strain A/Vietnam/1203/04, cH5-3.
Data set [9] addresses crossbeta FVIII-5 (cFVIII-5), Helixate kept at 95 C for 5 minutes.
In data set [10] the target is T4, crossbeta dOVA-1, ovalbumin at 5.2 mg/ml in HBS treated with HCl for 40 minutes at 37 C and neutralized, P01012.
T4 chain: T1 chain

For data set [11], the target named is non-treated H5 of H5N1 strain A/Vietnam/1203/04 (nH5), Protein Sciences.
For data set [12], the target named is crossbeta FVIII-1 (cFVIII-1), Helixate kept at 4 C for 20 hours.
Sequence of crossbeta FVIII-1 (cFVIII-1), Helixate kept at 4 C for 20 hours (chain, as listed by the source): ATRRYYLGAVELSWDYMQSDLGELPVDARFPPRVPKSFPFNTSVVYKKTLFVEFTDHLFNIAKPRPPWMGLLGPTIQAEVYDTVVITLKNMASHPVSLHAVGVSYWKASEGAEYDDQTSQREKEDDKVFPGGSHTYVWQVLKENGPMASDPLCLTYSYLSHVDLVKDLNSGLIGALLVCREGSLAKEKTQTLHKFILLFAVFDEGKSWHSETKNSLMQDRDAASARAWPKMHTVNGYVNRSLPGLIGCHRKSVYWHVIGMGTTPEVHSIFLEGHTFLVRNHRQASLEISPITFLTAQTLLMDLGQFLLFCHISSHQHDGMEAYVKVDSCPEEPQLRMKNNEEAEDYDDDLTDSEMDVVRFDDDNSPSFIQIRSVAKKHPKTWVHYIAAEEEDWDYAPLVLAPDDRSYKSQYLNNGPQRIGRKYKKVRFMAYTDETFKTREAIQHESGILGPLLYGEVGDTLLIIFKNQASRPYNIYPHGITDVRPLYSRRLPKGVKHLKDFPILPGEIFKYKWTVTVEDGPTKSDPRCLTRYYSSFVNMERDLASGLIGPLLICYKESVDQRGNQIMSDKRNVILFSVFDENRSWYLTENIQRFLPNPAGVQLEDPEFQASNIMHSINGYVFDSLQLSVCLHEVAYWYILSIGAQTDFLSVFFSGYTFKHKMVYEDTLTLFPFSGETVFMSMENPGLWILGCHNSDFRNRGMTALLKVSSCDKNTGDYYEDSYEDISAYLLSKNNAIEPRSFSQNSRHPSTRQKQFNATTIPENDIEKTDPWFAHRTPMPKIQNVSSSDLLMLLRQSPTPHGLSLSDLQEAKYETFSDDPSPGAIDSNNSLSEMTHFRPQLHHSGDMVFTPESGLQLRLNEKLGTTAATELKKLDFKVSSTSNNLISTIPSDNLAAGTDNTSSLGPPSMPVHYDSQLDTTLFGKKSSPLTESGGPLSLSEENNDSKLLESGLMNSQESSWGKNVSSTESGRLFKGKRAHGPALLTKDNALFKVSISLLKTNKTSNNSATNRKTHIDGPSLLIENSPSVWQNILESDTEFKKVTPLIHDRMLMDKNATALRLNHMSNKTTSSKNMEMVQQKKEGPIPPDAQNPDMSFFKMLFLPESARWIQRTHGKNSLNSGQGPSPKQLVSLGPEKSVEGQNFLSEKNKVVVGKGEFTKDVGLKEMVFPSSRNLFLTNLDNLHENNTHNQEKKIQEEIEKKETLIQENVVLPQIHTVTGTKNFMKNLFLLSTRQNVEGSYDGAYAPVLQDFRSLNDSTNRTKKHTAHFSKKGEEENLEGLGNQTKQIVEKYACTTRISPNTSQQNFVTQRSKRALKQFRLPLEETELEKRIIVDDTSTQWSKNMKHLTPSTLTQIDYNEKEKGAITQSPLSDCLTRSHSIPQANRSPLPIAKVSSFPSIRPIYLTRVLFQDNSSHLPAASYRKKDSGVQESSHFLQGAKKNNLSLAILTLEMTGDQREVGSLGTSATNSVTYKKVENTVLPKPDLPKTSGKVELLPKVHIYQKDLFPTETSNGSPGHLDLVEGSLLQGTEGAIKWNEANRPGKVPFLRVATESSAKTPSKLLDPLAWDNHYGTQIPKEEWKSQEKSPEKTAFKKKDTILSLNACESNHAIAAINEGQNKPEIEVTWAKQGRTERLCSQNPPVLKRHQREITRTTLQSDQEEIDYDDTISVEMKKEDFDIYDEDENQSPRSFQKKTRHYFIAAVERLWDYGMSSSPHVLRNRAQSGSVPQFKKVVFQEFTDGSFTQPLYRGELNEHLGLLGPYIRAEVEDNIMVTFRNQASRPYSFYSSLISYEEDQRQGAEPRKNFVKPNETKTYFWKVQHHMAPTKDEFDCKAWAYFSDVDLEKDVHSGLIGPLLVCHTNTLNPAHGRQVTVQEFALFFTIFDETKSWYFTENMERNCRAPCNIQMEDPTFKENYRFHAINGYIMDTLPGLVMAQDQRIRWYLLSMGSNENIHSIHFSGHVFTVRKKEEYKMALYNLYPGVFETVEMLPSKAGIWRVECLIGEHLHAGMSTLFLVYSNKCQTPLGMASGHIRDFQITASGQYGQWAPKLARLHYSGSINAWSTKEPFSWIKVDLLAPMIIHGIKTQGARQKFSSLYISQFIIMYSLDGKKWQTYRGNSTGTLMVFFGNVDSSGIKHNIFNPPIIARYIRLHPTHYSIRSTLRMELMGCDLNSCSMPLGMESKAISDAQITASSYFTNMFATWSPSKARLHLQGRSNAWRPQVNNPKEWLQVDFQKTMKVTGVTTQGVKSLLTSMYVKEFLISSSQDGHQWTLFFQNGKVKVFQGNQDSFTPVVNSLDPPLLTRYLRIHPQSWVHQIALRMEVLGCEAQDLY

Sequence of crossbeta factor VIII form 12, Helixate kept at 37 C for 1 week, P00451 (P00451 whole entry, looked up): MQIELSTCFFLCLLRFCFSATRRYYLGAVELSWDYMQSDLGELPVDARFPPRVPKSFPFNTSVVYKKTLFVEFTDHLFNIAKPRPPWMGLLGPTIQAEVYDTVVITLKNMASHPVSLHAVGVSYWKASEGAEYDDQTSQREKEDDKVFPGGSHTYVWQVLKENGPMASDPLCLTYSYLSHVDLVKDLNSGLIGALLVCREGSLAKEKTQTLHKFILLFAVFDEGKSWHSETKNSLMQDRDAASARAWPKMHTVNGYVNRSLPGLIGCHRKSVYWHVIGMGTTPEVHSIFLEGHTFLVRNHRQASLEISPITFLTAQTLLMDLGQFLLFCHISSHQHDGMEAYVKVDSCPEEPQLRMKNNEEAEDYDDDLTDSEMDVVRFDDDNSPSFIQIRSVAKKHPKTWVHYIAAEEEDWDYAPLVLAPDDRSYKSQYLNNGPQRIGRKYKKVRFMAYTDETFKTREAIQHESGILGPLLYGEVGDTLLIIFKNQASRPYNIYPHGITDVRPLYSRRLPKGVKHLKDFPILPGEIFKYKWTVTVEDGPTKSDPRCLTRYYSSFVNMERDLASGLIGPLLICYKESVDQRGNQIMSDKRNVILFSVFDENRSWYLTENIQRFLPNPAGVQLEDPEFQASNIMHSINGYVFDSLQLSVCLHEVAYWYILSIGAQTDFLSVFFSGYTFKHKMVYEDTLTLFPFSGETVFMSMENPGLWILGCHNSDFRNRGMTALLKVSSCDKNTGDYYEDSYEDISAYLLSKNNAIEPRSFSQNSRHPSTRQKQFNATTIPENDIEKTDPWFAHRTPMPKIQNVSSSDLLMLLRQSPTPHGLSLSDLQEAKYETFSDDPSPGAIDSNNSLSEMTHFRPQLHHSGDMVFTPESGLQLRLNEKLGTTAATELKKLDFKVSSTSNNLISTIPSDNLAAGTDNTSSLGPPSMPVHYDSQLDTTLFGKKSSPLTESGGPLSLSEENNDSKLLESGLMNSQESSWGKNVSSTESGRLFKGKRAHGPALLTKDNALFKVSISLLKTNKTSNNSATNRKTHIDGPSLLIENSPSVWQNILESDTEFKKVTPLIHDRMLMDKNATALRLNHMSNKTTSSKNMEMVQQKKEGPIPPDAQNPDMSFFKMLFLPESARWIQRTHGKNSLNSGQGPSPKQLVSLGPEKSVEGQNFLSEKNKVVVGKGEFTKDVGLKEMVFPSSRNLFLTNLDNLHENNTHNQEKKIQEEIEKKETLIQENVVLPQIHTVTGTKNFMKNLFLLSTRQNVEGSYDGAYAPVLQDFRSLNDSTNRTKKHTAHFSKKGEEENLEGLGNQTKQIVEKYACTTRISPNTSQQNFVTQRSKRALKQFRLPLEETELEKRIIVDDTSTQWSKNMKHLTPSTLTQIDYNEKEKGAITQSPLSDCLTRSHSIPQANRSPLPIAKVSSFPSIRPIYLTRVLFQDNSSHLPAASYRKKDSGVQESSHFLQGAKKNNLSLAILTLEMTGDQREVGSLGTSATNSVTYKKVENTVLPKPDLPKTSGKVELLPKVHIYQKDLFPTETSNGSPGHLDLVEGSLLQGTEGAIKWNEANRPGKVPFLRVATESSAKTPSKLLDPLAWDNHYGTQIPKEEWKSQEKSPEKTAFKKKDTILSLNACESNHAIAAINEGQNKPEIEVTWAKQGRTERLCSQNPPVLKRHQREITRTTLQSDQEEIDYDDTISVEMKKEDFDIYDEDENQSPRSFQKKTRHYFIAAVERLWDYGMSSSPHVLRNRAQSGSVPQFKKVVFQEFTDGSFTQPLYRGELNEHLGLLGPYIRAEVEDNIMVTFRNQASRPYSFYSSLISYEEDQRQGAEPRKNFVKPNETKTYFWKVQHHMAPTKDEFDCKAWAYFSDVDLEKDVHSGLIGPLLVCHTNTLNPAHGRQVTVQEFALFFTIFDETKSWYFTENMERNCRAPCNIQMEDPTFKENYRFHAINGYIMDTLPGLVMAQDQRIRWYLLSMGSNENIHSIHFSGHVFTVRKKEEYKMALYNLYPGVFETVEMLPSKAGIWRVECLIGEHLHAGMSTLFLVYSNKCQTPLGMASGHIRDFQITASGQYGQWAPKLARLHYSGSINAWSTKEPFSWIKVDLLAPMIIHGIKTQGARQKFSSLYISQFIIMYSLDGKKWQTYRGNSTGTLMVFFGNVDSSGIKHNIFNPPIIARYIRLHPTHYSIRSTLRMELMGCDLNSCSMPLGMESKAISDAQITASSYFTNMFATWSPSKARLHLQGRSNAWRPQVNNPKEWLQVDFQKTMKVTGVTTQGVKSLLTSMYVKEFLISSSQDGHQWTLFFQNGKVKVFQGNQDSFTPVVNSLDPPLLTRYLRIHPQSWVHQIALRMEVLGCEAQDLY
Sequence of crossbeta FVIII-5 (cFVIII-5), Helixate kept at 95 C for 5 minutes (chain, as listed by the source): as the sequence (chain, as listed by the source) above

B1: tissue type plasminogen activator (tPA; Actilyse, Boehringer-Ingelheim) (protein)
chain: SYQVICRDEKTQMIYQQHQSWLRPVLRSNRVEYCWCNSGRAQCHSVPVKSCSEPRCFNGGTCQQALYFSDFVCQCPEGFAGKCCEIDTRATCYEDQGISYRGTWSTAESGAECTNWNSSALAQKPYSGRRPDAIRLGLGNHNYCRNPDRDSKPWCYVFKAGKYSSEFCSTPACSEGNSDCYFGNGSAYRGTHSLTESGASCLPWNSMILIGKVYTAQNPSAQALGLGKHNYCRNPDGDAKPWCHVLKNRRLTWEYCDVPSCSTCGLRQYSQPQFRIKGGLFADIASHPWQAAIFAKHRRSPGERFLCGGILISSCWILSAAHCFQERFPPHHLTVILGRTYRVVPGEEEQKFEVEKYIVHKEFDDDTYDNDIALLQLKSDSSRCAQESSVVRTVCLPPADLQLPDWTECELSGYGKHEALSPFYSERLKEAHVRLYPSSRCTSQHLLNRTVTDNMLCAGDTRSGGPQANLHDACQGDSGGPLVCLNDGRMTLVGIISWGLGCGQKDVPGVYTKVTNYLDWIRDNMRP
With B1, the “tPA mediated plasminogen activation assay” value is “cH5-2 (150% of standard)” in data set [1]; “cH5-1 (50% of standard)” in [5]; “cH5-4 (37% of standard)” in data set [7]; “cH5-3 (200% of standard)” in data set [8]; “nH5 (140% of standard)” in data set [11]. Further, the Activation at 10 ug/mL in data set [2] was 107%; in [3] it was 60.9%; in data set [4] it was 48.8%; in data set [10], 97.4%. This protein also had an Activation at 10 ug/mL (row is the reference dOVA-2 at 80, set at 100%) in data set [2] of 100%. Besides, the Activation at 25 ug/mL in data set [2] amounted to 107%; in [3], 79%; in data set [4], 48.1%; in [10], 136%. Also, in [2], the Activation at 25 ug/mL (row is the reference dOVA-2 at 80, set at 100%) was 100%. Further, the “tPA/Plg activation assay, relative crossbeta content compared to a misfolded ovalbumin standard” value in data set [6] is “approximately 50, 75 and 125%”; in [9], “approximately 50, 75 and 125%”; in [12], “approximately 50, 75 and 125%”.
